Reference: the supplement of paper PMC10567573
± gives the standard deviation.

Test: protein stability index of a GFP-peptide fusion (GPS, HEK-293T) (PSI 1-6); higher = more stable
[1] = treatment: DMSO, c terminus: a fixed tail appended
[2] = treatment: MLN4924 1 uM, 8 h, c terminus: a fixed tail appended
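Further: 24-mer peptide tiles fused after GFP, lentivirally expressed, FACS-sorted into six equal bins by GFP/DsRed ratio, decoded by Illumina sequencing, PSI is the read-weighted mean bin number.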

QRELEIPEQQVDMHDMLLEELAPV [ZNF449] showed a protein stability index [1] of 5.22 ± 0.26 and a protein stability index [2] of 5.12 ± 0.21.

Work on EEAWVKIENLAKANPQYTVYSQAS [PPP2R5C] yielded a protein stability index [1] of 3.29 ± 0.16 and a protein stability index [2] of 3.48 ± 0.18.

Sequence WFKTRRKEMTQKLEALHLEALCEE [DENND6A] has a protein stability index [1] of 3.29 ± 0.27 and a protein stability index [2] of 3.88 ± 0.42.

In the case of QSSNLFRHQRRHNAEKLLNVVKV [ZNF24], the protein stability index (treatment: DMSO, c terminus: native) is reported as 1.84 ± 0.38 and the protein stability index (treatment: MLN4924 1 uM, 8 h, c terminus: native) is reported as 2.11 ± 0.26.

With GPPGRSIGGAAPSLGALDLLGPAT [SERTAD1] the protein stability index [1] was 3.79 ± 0.14 and the protein stability index [2] was 3.81 ± 0.11.

Sequence GIRLSENVIDRMKESSPSGSKSQR [CHCHD3] has a protein stability index [1] of 4.65 ± 0.19 and a protein stability index [2] of 4.72 ± 0.2.

VIKYNVNDKFSFHEVKDNYIPVIK [RHOBTB3] gave a protein stability index [1] of 2.21 ± 0.44 and a protein stability index [2] of 2.75 ± 0.34.

For EGRKKAFSTCGSHLTVVAIFYGSG [OR3A1], the protein stability index [1] was 2.77 ± 0.4 and the protein stability index [2] was 3.15 ± 0.38.

For RARLDSMVLLIMKLDQLDQDIENA [DLC1], the protein stability index [1] was 2.47 ± 0.22 and the protein stability index [2] was 2.4 ± 0.39.

PLELLPGGPARPLGPGPAAPRLLK [CEBPD] showed a protein stability index [1] of 4.33 ± 0.12 and a protein stability index [2] of 4.54 ± 0.14.

Work on MPAAGLAVQLRHAWNPEDRSLNVF [SPSB4] yielded a protein stability index [1] of 2.75 ± 0.14 and a protein stability index [2] of 2.95 ± 0.26.

Sequence QPLADEGPPGRSIGGAAPSLGALD [SERTAD1] has a protein stability index [1] of 5.19 ± 0.24 and a protein stability index [2] of 5.32 ± 0.15.

Work on KRSWTSAQNACSEHGATLAVIDSE [CD69] yielded a protein stability index [1] of 4.64 ± 0.076 and a protein stability index [2] of 4.67 ± 0.17.

TKQWTLIAKHLKGRLGKQCRERWH [MYBL2] showed a protein stability index [1] of 2.51 ± 0.68 and a protein stability index [2] of 2.26 ± 0.38.

Sequence QQTPVGTPKDKRVSNTPLRTVDGS [PALM] has a protein stability index [1] of 5.07 ± 0.13 and a protein stability index [2] of 5.03 ± 0.15.

In the case of EFVTLKAIALANSDSMHIEDVEAV [ESRRG], the protein stability index [1] is reported as 3.39 ± 0.38 and the protein stability index [2] is reported as 3.31 ± 0.29.

In the case of NLAQDPQCKEWQVLMCGFPFLLLF [TMEM120A], the protein stability index [1] is reported as 2.5 ± 0.61 and the protein stability index [2] is reported as 2.35 ± 0.61.

Sequence KVEEEIVTLRQVLAAKERHCGELK [TPD52L2] has a protein stability index [1] of 3.95 ± 0.3 and a protein stability index [2] of 4.21 ± 0.14.

NQNSWGTGEDVKVILKNSQGEEVA [LMNB1] showed a protein stability index [1] of 4.99 ± 0.22 and a protein stability index [2] of 4.85 ± 0.13.

In the case of ASGQGPMCNVKAPLGSPSPRPRRA [ADAMTS4], the protein stability index [1] is reported as 4.88 ± 0.29 and the protein stability index [2] is reported as 5.13 ± 0.15.

Work on HGEGNHIYAYDAKIEIQTLTGLFK [CASP6] yielded a protein stability index [1] of 2.17 ± 0.22 and a protein stability index [2] of 2.12 ± 0.33.

Work on RELGVWRSLLRLRATRAGAAEEPG [C2CD2L] yielded a protein stability index [1] of 3.15 ± 0.24 and a protein stability index [2] of 3.27 ± 0.33.

QRINTYVFVGNQLIPQPLDSEEDE [PCMTD1] gave a protein stability index [1] of 4.32 ± 0.25 and a protein stability index [2] of 4.37 ± 0.15.

SYPVMGFEFQVRVCDSCYDSIKDE [WDFY1] showed a protein stability index [1] of 2.76 ± 0.18 and a protein stability index [2] of 3.06 ± 0.39.

With QLTKELPLSPAFFGEDGIFRHDRL [PBXIP1] the protein stability index [1] was 3.07 ± 0.19 and the protein stability index [2] was 3.01 ± 0.33.

For LGRELMLQLSEFLCEEFRNRNQRI [CPN1], the protein stability index [1] was 2.31 ± 0.2 and the protein stability index [2] was 2.26 ± 0.26.

IATATEIAYYSYIYSVVDLGMYQK [SLC19A2] showed a protein stability index [1] of 3.05 ± 0.33 and a protein stability index [2] of 2.94 ± 0.51.

Work on TTTSAATATTAPPALDIFGDLFES [SNAP91] yielded a protein stability index [1] of 4.47 ± 0.1 and a protein stability index [2] of 4.68 ± 0.16.

MDETSPLVSPERAQPPDYTFPSGS [PI4K2A] showed a protein stability index [1] of 4.91 ± 0.15 and a protein stability index [2] of 4.78 ± 0.39.

For RYHRFISFALYLAGFCMFVLSLVK [CDS1], the protein stability index [1] was 2.02 ± 0.21 and the protein stability index [2] was 2.08 ± 0.44.

Work on LDVERWLKPAMTQAQDEVEQERRL [FCHSD1] yielded a protein stability index [1] of 4.98 ± 0.16 and a protein stability index [2] of 5.11 ± 0.19.

In the case of RSGAGVALLNDHIYVVGGFDGTAH [KLHL12], the protein stability index [1] is reported as 2.78 ± 0.43 and the protein stability index [2] is reported as 2.37 ± 0.46.

NLVARHPLFSEDVVLKLFLSFSGS [SNX8] showed a protein stability index [1] of 2.7 ± 0.58 and a protein stability index [2] of 2.33 ± 0.2.

Work on QSPGQPVQGGSEAWGPGTLAAAPE [TEX19] yielded a protein stability index [1] of 5.08 ± 0.37 and a protein stability index [2] of 5.11 ± 0.24.

QPGLLHLQSCGDLHTFTPAGRPRA [FAM189A2] gave a protein stability index [1] of 5.66 ± 0.44 and a protein stability index [2] of 5.53 ± 0.18.

Sequence FARFCKSQESALGNTVPAVEPGTP [DNAAF3] has a protein stability index [1] of 3.63 ± 0.25 and a protein stability index [2] of 3.58 ± 0.21.

IPPKEFHFRHPKRSVSLSMRKSGA [BNIP3L] showed a protein stability index [1] of 3.37 ± 0.34 and a protein stability index [2] of 3.77 ± 0.34.

Sequence LGPESWQQIAMDPEEVKSLDSNGA [BCL2L13] has a protein stability index [1] of 5.16 ± 0.16 and a protein stability index [2] of 5.24 ± 0.21.

Work on PTTGYRRLLRFSSQIHNNGQSDFR [LOXL2] yielded a protein stability index [1] of 3.03 ± 0.37 and a protein stability index [2] of 3.22 ± 0.31.

LLNPNLKDTVICAMKITQEPQGLG [SPACA3] showed a protein stability index [1] of 2.4 ± 0.4 and a protein stability index [2] of 2.51 ± 0.21.

RELKAKLSGVEEELQRTKQEVLSL [SASS6] showed a protein stability index [1] of 4.47 ± 0.41 and a protein stability index [2] of 4.46 ± 0.22.

SATLRSFEGLMGTIKSKVSGGKRA [TPD52L3] showed a protein stability index [1] of 3.51 ± 0.18 and a protein stability index [2] of 3.33 ± 0.56.

AAQPMTKKRKVDGLSTEAEQPFIP [PRAME] showed a protein stability index [1] of 4.43 ± 0.21 and a protein stability index [2] of 4.55 ± 0.27.

With RVSAMRDYRGPDCRYLNFTKGEEI [MIA2] the protein stability index [1] was 3.02 ± 0.58 and the protein stability index [2] was 3.26 ± 0.49.

In the case of FMPAMQFSIPPWRYDAEVVAIAQK [MYORG], the protein stability index [1] is reported as 2.33 ± 0.22 and the protein stability index [2] is reported as 2.52 ± 0.18.

For DDVISRIDRMFPEMSIHLSRPNGT [MED27], the protein stability index [1] was 3.25 ± 0.24 and the protein stability index [2] was 3.36 ± 0.25.

Work on IDYKTTTILLDGQRVKLKLWDTSG [RAB40A] yielded a protein stability index [1] of 2.27 ± 0.07 and a protein stability index [2] of 2.36 ± 0.2.

For GGEFQCGLEAASVYSDHTNTNNLT [RNF180], the protein stability index [1] was 2.42 ± 0.36 and the protein stability index [2] was 2.42 ± 0.29.

With PETQLFWDKEPWFWHDTLTEQLWR [TLE6] the protein stability index [1] was 2.7 ± 0.57 and the protein stability index [2] was 2.27 ± 0.36.

Work on PGDMLLQVNEINFENMSNDDAVRV [DVL3] yielded a protein stability index [1] of 4.4 ± 0.35 and a protein stability index [2] of 4.37 ± 0.21.

TCISELRMLQREGCFRSQGASLRL [M1AP] showed a protein stability index [1] of 2 ± 0.29 and a protein stability index [2] of 2.19 ± 0.37.

ESLRPLVQTPPGGSEVVPVISPMY [IKZF1] showed a protein stability index [2] of 3.72 ± 0.71.

Sequence MSKLLKRQNDILQVVSQGWKYFKG [CD207] has a protein stability index [1] of 2.28 ± 0.36 and a protein stability index [2] of 2.28 ± 0.082.
